Results published in patent US20240287489A1, “CHITINOLYTIC ENZYME-BASED PLANT PROTECTION AGENTS” (GLOBACHEM NV, priority 2021, published 2024).

How the values were obtained:
[1] = Reducing end assay, specific chitinase activity of expression and purification fractions; assay type: biochemical; settings: chitin powder, 16 h at 30° C.
Method: Integrity and correctness of the constructs was confirmed by colony PCR and Sanger-sequencing. All constructs were transformed into E. coli BL21 and expressed recombinantly. Expression levels of the target enzymes were determined densitometrically after immunoblot detection for cytosolic and secreted expression. Enzymatic activity was determined for all samples using a reducing end assay. […] Furthermore, it was confirmed that these enzymes are efficiently released into the culture supernatant, rendering cell lysis unnecessary for future production cycles.
A two-step purification of the selected recombinant enzymes with PelB signal peptide form the culture supernatant was carried out with an initial ammonium sulfate precipitation step and a sequential IMAC purification of the solubilized protein precipitate. Elution fractions were pooled and an SDS-PAGE and immunoblot was prepared loading the same volume for each sample (FIG. 4). Expression levels of the five chitinases varied largely, and C1 was detected in much greater abundance relative to the others. […] The observed molecular weight of all enzymes in SDS-PAGE gel and immunoblot was not in accordance with the expected theoretical molecular weight taking into account that a 6×His tag was added C-terminally to the enzymes and in general, bands for all enzymes were detected at a higher molecular weight. For all samples, unspecific bands could detected at ˜25 kDa and ˜50 kDa after IMAC purification, most likely representing host cell protein-contaminations. The amount of protein in the culture media, ammonium sulfate concentrates and the final dialyzed elution fractions was determined using the BCA assay and the same fractions were incubated with chitin powder for 16 h at 30° C. followed by the quantification of reducing sugars to measure specific chitinase activity (Table 4.2). Thereby it was confirmed that all target enzymes were successfully enriched during purification according to the specific activity.
For the determination of enzymatic activity of recombinant chitinases, a reducing end assay was carried out [Svein et al., Carbohydr Polym, 2004. 56(1): p. 35-39.]. Fractions containing chitinases were incubated with 5% (w/v) chitin powder extracted from shrimp shells (˜400.000 g/mol; Carl Roth) in MAT buffer for 2 h in an overhead shaker at ambient temperature (standard conditions). Samples were centrifuged at 13000×g for 2 min and 40 μl of the supernatant was mixed with 40 μl 0.5 M NaOH and 40 μL of a reagent containing 1.5 mg/ml 3-Methyl-2-benzothiazolinonhydrazon and 0.75 mg/ml Dithiothreitol. Samples were incubated at 80° C. for 15 min and then thoroughly mixed with 80 μl of 0.5% (w/v) FeNH4(SO4)2)×12H2O, 0.5% (w/v) sulfamic acid and 0.25 M HCl. After cooling down to room temperature, 100 μl of the samples were measured at 620 nm. A calibration curve of N-acetyl-glucosamine was constructed freshly for each measuring cycle. One unit [U] was defined as the amount of enzyme required to release 1 μmol of reducing sugars per hour.

[2] = Enzyme kinetics on chitin powder (Michaelis-Menten non-linear fit); assay type: biochemical; settings: 2 μM enzyme, 0-150 mg/ml chitin powder
Method: Enzyme kinetics were determined using chitin powder as a substrate and the optimum enzyme to substrate ratio could be determined as well as Vmax and Km values. The concentrations of chitin powder varied
from 0 mg/ml up to 150 mg/ml while amount of enzyme was kept constant (2 μM). The initial velocities (V0) versus substrate concentration ([S]) were plotted as Lineweaver-Burk and Michaelis-Menten curves using GraphPad software (FIG. 7).
Maximum reaction velocities (Vmax) and Michaelis-Menten constants (Km) were determined using a non-linear fit Michaelis-Menten model (Table 4.6). Thereby, optimum enzyme-substrate ratios were determined that would allow a maximization of substrate conversion rates. Furthermore, the Km indicated the reciprocal enzyme-substrate affinity for C1-C5. Higher Km values reflect an overall lower affinity and thus reduced conversion efficiencies. […] In comparison, higher Km values for C2 and C5 reflected an overall lower affinity to insoluble chitin.
Enzyme samples were incubated at different temperature (10-60° C., 10° C. increment) and pH (4-11, increment 1) using different buffer systems (Acetate, Tris-HCl, MES, total molar concentration 100 mM), as well as NaCl content (0, 1. 2.5, 5, 10 and 20% w/v) to determine optimum reaction conditions. All experiments were carried out at 1.0 ml scale using 2 μM of the respective enzymes and a 5% (wv) suspension of chitin powder extracted from shrimp shells (˜400.000 g/mol; Carl, Roth) in 100 mM MAT buffer. For the determination of the substrate specificity, chitin powder (5% w/v), glycol chitin (10% v/v), colloidal chitin (5% w/v), chitosan [DA 15-25%, medium molecular weight, Sigma-Aldrich] (5% w/v) and microcrystalline cellulose powder (Sigma Aldrich) (5% w/v) were investigated, respectively. The effect of several potential co-factors on activity was elucidated at a concentration of 1 mM. Additionally, the effect of detergents [SDS 0.5% (w/v), Tween-20 and Triton X-100 both at 0.5% (v/v)] and chemicals (Imidazole 100 mM, EDTA 1 mM) on enzymatic activity was assessed. Samples were incubated in a thermomixer for 16 h at 900 rpm. After incubation, samples were analyzed using the enzyme assay. Thermostability was assessed after incubation of recombinant chitinases at 60° C. for different durations followed by the quantification of residual enzyme activity under standard assay conditions.

[3] = tested on: Septoria tritici; test: Minimum inhibitory concentration (MIC) test on fungal pathogens; assay type: cell-based; set-up: key: xx = no growth/strong inhibition; x = small inhibition; settings: start concentration 100 μg/ml
[4] = Dialysed elution fraction after IMAC

B1: Chitinase 4: chitinolytic enzyme from P. orarium, SEQ ID NO: 4, recombinant with PelB signal peptide and 6×His tag (protein, listed as Photobacterium orarium)
chain: MAQAAANCRPDGLYQTPGVTVPYCTVYDQDGREKMGVDHPRRVIGYFTSWRSGNDPQSSYLVNDIPWDSLTHINYAFVSIGSDGKVNIGNVNNPDNPAVGKEWPGVEIDPALGFKGHFGALATAKAQHGVKTLISIGGWAETGGHFDDNGNRVADGGFYTMTTNADGSINHQGIQTFADSAVAMMRQYKFDGLDIDYEYPTSMQGAGNPDDFAYSDAMRPHLMKSYHELMKVLREKLDQASAQDGHHYMLTIAAPSSGYLLRGMETMSVTKYLDYVNIMSYDLHGAWNDYVGHNASLFDSGLDAELEAGNVYGTAQYKKTGYLNTDWAYHYFRGSMPAGRINIGVPYYTRGWQGVTGGTNGLWGKAALPNQSDCPTGTGAGTSNCGYGAIGIDNMWHDKDANGNEMGAGSNPMWHAMNLANGVYGSYTAAYGLDPVNDPQDALTGTYTRHYDSVSVAPWLWNADKKVFLSTEDKESINTKADYVIEQGIGGIMFWELAGDYSCYNLDANGNRTTVDPTENACKTGNGEYHMGDTMTKAIHNKFATATPYGNTLAEGAIPTEAVNIDVSVTGFKVGDQNYPLNPTMTLTNKTGQTLPGGTEFQFDIPTSTPDNMSDQSGANLQVISSGHTRGDNIGGLDGNFHRVAFTLPSWKQLGNNESFELTLNYFLPISGPANYSVRVNNADYALAFEQPDLPIADLSNGGGDNGGGDGNNGDCVTTGVNTYPNWPQTDWAGNPSHAGTGDKIIYNGAVYQAKWWTNSVPGSDGSWDTVCTVQIE
modifications: PelB signal peptide; 6xHis tag; Chitinase 4
In the case of B1, the Specific activity ([1]; Culture supernatant fraction) is reported as 0.07 U/mg, the Specific activity [1, 4] is reported as 6.07 U/mg and the “Km (enzyme-substrate affinity)” value [2] is reported as 22.2 mg/mL. The “Vmax (maximum reaction velocity)” value [2] was 218.6 U/ml.

B2: Chitinase 1: chitinolytic enzyme from P. orarium, SEQ ID NO: 1, recombinant with PelB signal peptide and 6×His tag; run 19 = 2 μM alone (protein, listed as Photobacterium orarium)
chain: MAAPGTPQIAWMETDYAIVEVDQAASAYKSLITVKPAAEVPVAWQRYSGETADLWKVKLNGNVVFEQSIAPASSGAGSTTLSVAQGGQYAMTVELCSGTGAAQACTSSAATNIVVADTDGSHLDPLPMNVDANNGNYTTPANTVVGAYFVEWGVYGRKFSVDNIPAQNLTHILYGFIPICGPNESLGEIENGNSLAALNRACQGTPDYEVVIHDPWAAVQMPQPQSGHTHSTPYKGTYGQMMALKQRYPDLKIVPSVGGWTLSDPFYSFTDKAKRDIFVASVKKFLKTWKFFDGVDIDWEFPGGKGANANLGDPVNDGPAYVALMRELRVMLDELEAETGRQYELTSAIGVGYDKIDVVNYADAVQYMDYIFAMTYDFFGGWNNVPGHQTALFCGSHMSADVCNGTGVDENGVPRQGPAYTAAHGIDRLLAQGVPANKLVLGTAMYARGWTGVTEASMTDPTNPMTGTGNGMVPGSWEPGVIDYKDVVTDYINNAAVTKGYDAQAEAPWAYNPSNGNLITYDDRRSVLAKGQYVRNLGLAGLFAWEIDADNGDILNAMQDSLAGGGGNYAPVAKAGADQVVNGAASVTLDGSASSDRDGQIVSYQWTQTSGPALTLTGSDTATATVAVPEVTADTQYAFTLTVTDNAGDTATDSVTVTAKAPGSNTAPVVAVSGPATASAGDTVVLDASQSSDADGDTLTFTWTVPAGVNATVNGATVSFVADSYTVDTPLNFTVAVSDGTDSVTESVTVTVLKDGGSTGCTNAWATGGVYNSGDIVTHSGKSWKAKWWTTGEEPGTTGEWGVWEDLGAANCQIE
modifications: PelB signal peptide; 6xHis tag; Chitinase 1
notes: run 19 = 2 μM alone
With B2 the Specific activity ([1]; Culture supernatant fraction) was 0.10 U/mg, the Specific activity [1, 4] was 3.52 U/mg and the “Km (enzyme-substrate affinity)” value [2] was 9.1 mg/mL. The “Vmax (maximum reaction velocity)” value [2] was 197.7 U/ml and the “growth inhibition of Septoria tritici in the MIC test” value [3] was “xx”.

B3: Chitinase 2: chitinolytic enzyme from P. orarium, SEQ ID NO: 2, recombinant with PelB signal peptide and 6×His tag (protein, listed as Photobacterium orarium)
chain: MATANYNPDGVYSAGEQVIYQGATYQALRSTENEAPDTYLGDAWQQVNAQNVTSSTTPTYPAYQSSAVYVGGDHVSYNSQIYKAKWWTQGEAPDATPGTGVWEWVSADNNPDPGPGPDPDPTPEPTPANGIIGQNPDGSYIMSKTYLDAREAELTSSPEFAAVLASISTRDNAVVEAVVPGLSTNPDNVKRVEALISEQKWDALFPERNVVYTYSNFLKAVAKFKGFCATYTDERAAQSDAICAKSLAVMFAHFTQETGAHNPHSPYEEWRQGLFFVREAGCSEEASSCGYNSECAASNWQTEQWPCGTNPDGSYVKYFGRGAKQLSYHYNYGPFSDFIFNDVNVLLQDPDRVADSWLNLASAVFFFVYPQPPKPSMLHVIDGTWQPTAADIAEKRVPGFGVTTMIINGGIECTLDTEKPQSVNRIKYYRGHAAALGVAIPADEQLGCAGMKAFKKTGDSTFGLYWENDWSYYPDNPGGSSFACRIESGYQTAHTTLKKGDYAKCIQKYYGVTIE
modifications: PelB signal peptide; 6xHis tag; Chitinase 2
With B3 the Specific activity ([1]; Culture supernatant fraction) was 0.04 U/mg, the Specific activity [1, 4] was 5.36 U/mg and the “Km (enzyme-substrate affinity)” value [2] was 61.8 mg/mL. For the same molecule, the “Vmax (maximum reaction velocity)” value [2] was 175.4 U/ml and the “growth inhibition of Septoria tritici in the MIC test” value [3] was “xx”.

B4: Chitinase 3: chitinolytic enzyme from P. orarium, SEQ ID NO: 3, recombinant with PelB signal peptide and 6×His tag (protein, listed as Photobacterium orarium)
chain: MALAAPGTPQLAWMETDYAIVEVDQAATAYKDLVTVKNAADVPVAWQRYSGETADHWKVKLNGNVAFEESINPASSGAGSTTLSITQGGQYALTVELCSGSGAEEACSSSPATNIVVADTDGSHLDPLPMNVDPNNGTYSTPADTVVGAYFVEWGVFGRKFTVDKIPAQNLTHILYGFIPVCGPNESLGEIESGNSLAALNRACAGTPDFEVAIHDPWAAVQMPQPQSGHTYSTPYKGNYGQLMALKQRYPDLKVIPSIGGWTLSDPFFSFTDKSKRDVFVASVKKFLQTWKFFDGVDIDWEFPGGKGANTTLGDPVNDGPAYVALMRELRTMLDGLEAETGRQFELTSAIGVGYDKIDVVNYAEASQYMDYIFNMSYDFYGGWSNVTGHQTALNCGSHLTADQCNGTGVDENGEPRQGPAYTTAHGVERLLAQGVPANKLVVGAAMYGRGWTGVTQASMTDPSNPMTGVGNGAVAGSWEAGVIDYKDVVTRYENKAGVVLGYDEQAEAPWAYDPSNGDLVTYDSPRSIMAKGQYVRDLGLAGLFAWEIDADNGDILNAMQESLAGAPAGNRAPVARAGSDQQVNTAATVTLNGSSSTDSDGQIAGYQWVQTSGPALTLNGANTASATISVPDVTVDTQYVFTLTVTDNEGATATDSITVTAKAPGAQNTAPVASLTGPGTANADDVITLDASQSTDADGDTLTYDWTVPAGVNAVINGSSLSFTADSYTTDTALSFSVSVSDGTASDAASLTVTIAKDESGTGGEGDFPAYVEGTAYQAGDQVSNGGVNFECKPYPYSGWCSGAAWAYEPGVGVYWQDAWTQLIE
modifications: PelB signal peptide; 6xHis tag; Chitinase 3
For B4, the Specific activity ([1]; Culture supernatant fraction) was 0.13 U/mg, the Specific activity [1, 4] was 8.13 U/mg and the “Km (enzyme-substrate affinity)” value [2] was 15.2 mg/mL. The “Vmax (maximum reaction velocity)” value [2] was 206.2 U/ml.
